Results: patent US20230340027A1 (TECHNION RESEARCH AND DEVELOPMENT FOUNDATION, published 2023)
Positions of bridges follow the written chain, without caps; N, C: chain ends. code X = not defined here

Key:
[1] = target: T1, biotin-tetra-UbK48 (UniProt P0CG48 1-76, Ub monomers linked to one another via Lys48 (K48); biotin tag (site not stated)); assay: direct fluorescence plate binding: biotin-tetra-UbK48 on a streptavidin plate, labeled peptide titrated, bound peptide released with 6 M Gn.HCl and read (ex 480 nm, em 525 nm); one-site fit
T1 construct: Immobilised on streptavidin-coated 96-well plates (1 ug per well); one ubiquitin repeat is meant; also called biotin tagged tetra-UbK48

[2] = target: T1, biotin-tetra-UbK48; assay: the filing's modified fluorescence assay, FITC-labelled peptide on tetra-UbK48 (FIGS. 1G and 26)
Protocol: (1i) A non-limiting schematic representation of the screening of various unlabeled peptides. (1A) An unlabeled cyclic peptide introduced for binding to the biotin-tetra Ub. (1B) A labeled cyclic peptide is introduced to compete with the binding of the unlabeled peptides to the biotin-tetra Ub followed by washing the unbounded peptides. (1C) The bound peptides are released using Guanidinium-HCl (Gn·HCl) and the fluorescence intensity is measured. (1ii) A non-limiting schematic representation for measuring the dissociation constant (Kd) of FITC-labeled peptide with different concentrations. (1D) A FITC-labeled cyclic peptide with different concentrations are introduced in different wells for binding to the biotin-tetra Ub. (1E) Washing out the unbounded labeled cyclic peptide. (1F) The bound peptides are released using Gn·HCl and the fluorescence intensity is measured. […] All measurements were performed in triplicates.
The inventors envisioned a screening strategy to proceed through four main steps, each terminated by washings with binding buffer. First, biotin tagged tetra-UbK48 was immobilized in a constant amount (1 μg per well) in streptavidin covered 96 well plate (FIG. 1(i and ii)). […] Finally, the bound peptides were released from wells by treatment with 6 M guanidine hydrochloride (Gn·HCl) solution followed by measuring the gained fluorescence (FIG. 1(i)).

B1: (Ub4_ix_S7C)2CH2-FITC (peptide)
peptide: {CH2CO}-WLYLDDCGDWWICG-{code X-C(fluorescein-5-maleimide)-NH2}
modifications: thioether N-13 (inferred); reading uncertain; also: dimer: Cys7 joined to Cys7 of second copy by -S-CH2-S-, residue 15 not given here
notes: Dimer of peptide 29, so each chain carries the label; also called FITC labeled stapled dimer 30; 30
With B1 the “EC50 (read off the curve)” value [1] was roughly 10 nM and the Kd [2] was 12.3 nM.
